Source: patent US20190309079A1 (Regeneron, published 2019)

T1: extracellular domain of human LEPR (amino acids 22-839 of P48357, Isoform B) with N-terminal myc-myc tag, … (human, UniProt P48357 22-839, GPI anchor at the C-terminus)
T1 construct: also called HEK293/Mycx2-hLepR(Ecto)-GPI anchored cells
T1 sequence: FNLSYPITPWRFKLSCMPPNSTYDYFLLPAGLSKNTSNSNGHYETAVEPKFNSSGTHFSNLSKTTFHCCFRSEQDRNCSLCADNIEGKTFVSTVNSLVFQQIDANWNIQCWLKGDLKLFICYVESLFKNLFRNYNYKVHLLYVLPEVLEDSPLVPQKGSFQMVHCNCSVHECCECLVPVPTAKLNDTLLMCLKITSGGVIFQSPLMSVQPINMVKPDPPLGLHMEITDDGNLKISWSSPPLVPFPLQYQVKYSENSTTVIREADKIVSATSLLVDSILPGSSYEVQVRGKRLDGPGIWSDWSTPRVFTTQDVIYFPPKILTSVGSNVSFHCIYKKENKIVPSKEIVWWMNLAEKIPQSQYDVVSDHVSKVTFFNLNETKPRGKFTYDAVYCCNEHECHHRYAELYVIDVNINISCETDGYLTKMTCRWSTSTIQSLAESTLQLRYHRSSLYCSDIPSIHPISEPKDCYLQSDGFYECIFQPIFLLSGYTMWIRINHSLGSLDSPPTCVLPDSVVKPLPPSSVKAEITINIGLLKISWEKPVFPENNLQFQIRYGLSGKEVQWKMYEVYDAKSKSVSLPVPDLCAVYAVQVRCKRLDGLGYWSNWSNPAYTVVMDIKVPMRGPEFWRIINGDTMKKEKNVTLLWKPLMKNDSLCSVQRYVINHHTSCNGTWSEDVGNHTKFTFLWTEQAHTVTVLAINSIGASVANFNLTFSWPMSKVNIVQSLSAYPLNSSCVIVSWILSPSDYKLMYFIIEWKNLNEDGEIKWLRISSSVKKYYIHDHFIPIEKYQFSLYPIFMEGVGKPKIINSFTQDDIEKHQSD

T2: full length human LEPR (amino acids 1-1165 of P48357, Isoform B) on cells (human, UniProt P48357 22-1165)
T2 sequence: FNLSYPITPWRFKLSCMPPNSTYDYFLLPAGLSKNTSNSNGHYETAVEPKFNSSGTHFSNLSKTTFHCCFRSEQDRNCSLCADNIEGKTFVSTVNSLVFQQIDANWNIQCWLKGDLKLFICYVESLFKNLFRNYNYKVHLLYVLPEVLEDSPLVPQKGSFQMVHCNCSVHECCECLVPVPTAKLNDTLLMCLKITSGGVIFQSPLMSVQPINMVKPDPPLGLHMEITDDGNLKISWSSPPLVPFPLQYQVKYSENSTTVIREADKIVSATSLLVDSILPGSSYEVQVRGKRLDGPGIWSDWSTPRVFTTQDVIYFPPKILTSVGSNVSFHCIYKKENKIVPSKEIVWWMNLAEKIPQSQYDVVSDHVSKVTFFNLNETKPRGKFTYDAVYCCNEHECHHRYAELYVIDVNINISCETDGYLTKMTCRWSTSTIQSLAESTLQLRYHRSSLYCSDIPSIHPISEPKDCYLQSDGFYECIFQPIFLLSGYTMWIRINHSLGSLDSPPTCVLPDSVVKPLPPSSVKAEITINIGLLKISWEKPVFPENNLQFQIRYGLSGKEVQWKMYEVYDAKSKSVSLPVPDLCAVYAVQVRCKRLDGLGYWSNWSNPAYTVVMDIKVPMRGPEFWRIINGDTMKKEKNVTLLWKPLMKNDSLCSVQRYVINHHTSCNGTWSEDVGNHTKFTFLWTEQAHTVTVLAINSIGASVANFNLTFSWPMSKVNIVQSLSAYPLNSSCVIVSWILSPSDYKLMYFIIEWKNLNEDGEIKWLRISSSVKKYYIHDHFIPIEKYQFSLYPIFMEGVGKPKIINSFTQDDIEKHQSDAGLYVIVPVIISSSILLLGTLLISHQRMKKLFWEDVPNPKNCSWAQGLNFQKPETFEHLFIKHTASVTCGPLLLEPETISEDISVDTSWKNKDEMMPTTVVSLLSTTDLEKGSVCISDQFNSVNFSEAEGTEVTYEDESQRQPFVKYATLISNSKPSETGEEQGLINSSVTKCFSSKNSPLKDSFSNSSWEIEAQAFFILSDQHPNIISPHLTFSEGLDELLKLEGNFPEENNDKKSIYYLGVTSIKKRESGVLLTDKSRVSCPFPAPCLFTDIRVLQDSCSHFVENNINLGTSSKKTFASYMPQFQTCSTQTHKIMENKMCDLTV

T3: wild-type LEPR on HEK293 reporter cells (UniProt P48357 22-1165, limits assumed)
T3 sequence (looked up): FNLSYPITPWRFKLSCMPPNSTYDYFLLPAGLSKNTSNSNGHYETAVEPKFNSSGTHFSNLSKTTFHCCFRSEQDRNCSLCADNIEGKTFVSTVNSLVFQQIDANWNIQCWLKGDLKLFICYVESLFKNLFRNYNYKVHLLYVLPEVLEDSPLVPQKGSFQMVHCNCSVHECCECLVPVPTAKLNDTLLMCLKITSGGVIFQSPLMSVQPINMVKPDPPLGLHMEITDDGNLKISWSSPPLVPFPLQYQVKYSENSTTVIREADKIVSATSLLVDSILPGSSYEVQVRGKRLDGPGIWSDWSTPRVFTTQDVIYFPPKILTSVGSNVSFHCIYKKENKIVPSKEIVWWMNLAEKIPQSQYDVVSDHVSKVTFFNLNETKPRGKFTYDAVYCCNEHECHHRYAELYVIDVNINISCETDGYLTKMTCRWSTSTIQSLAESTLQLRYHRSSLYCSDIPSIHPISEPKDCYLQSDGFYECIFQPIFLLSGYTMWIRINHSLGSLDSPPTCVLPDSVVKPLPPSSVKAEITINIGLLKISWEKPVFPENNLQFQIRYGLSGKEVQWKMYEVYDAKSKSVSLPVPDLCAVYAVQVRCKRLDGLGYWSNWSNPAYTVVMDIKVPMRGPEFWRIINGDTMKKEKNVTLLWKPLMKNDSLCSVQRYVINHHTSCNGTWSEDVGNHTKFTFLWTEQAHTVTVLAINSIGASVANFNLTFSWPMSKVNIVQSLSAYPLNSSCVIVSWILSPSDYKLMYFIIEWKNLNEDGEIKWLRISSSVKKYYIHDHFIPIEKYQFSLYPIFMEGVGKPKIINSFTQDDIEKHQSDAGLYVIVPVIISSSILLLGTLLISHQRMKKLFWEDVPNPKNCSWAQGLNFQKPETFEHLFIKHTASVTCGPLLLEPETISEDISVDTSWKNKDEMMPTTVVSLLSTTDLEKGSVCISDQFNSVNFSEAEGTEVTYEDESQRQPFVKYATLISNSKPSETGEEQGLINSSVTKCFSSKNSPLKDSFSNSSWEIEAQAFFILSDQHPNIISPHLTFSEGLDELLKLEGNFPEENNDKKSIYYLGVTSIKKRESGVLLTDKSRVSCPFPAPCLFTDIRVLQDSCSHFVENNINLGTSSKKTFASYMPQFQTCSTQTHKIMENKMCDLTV


Tests used:
[1] = molecular target: T1, extracellular domain of human LEPR …; experiment: FACS, 10 nM Ab, HEK293/hLEPR-GPI, no added Leptin
Protocol: For the FACS analysis, HEK293 parental cells and HEK293/hLEPR-GPI cells were dissociated and plated onto 96-well v-bottom plates at 5×10⁵ cells/well in PBS containing 2% FBS (FACS buffer). […] Cells were subsequently fixed using BD CytoFix™ (Becton Dickinson, #554655), filtered, and analyzed on a HyperCyt Flow Cytometer (Beckman Coulter). Unstained and secondary antibody alone controls were also tested for all cell lines. The results were analyzed using ForeCyt (IntelliCyt) and FlowJo version 10 software to determine the geometric means of fluorescence for viable cells. The geometric mean of fluorescence for each sample was then normalized to the geometric mean of unstained cells to obtain relative binding per condition referred to as “binding ratios”, and these binding ratios were recorded for each antibody tested.

[2] = molecular target: T2, full length human LEPR (amino acids …); experiment: cell-based or functional assay
[3] = molecular target: extracellular domain of Macaca fascicularis LEPR (amino acids 22-837 of XP_005543194.1, T827A) fused with the … (Macaca fascicularis; human); experiment: cell-based or functional assay
[4] = molecular target: T1, extracellular domain of human LEPR …; experiment: FACS, 70 nM Ab, HEK293/hLEPR-GPI, no Leptin
[5] = molecular target: T3, wild-type LEPR on HEK293 reporter cells; experiment: cell-based or functional assay
[6] = molecular target: T2, full length human LEPR (amino acids …); experiment: FACS, 70 nM Ab, HEK293/Stat3-luc/hLEPR-FL, no Leptin

Row | Binder | Binding Ratio (normalized to unstained) [1] | % activation; IMR-32/LEPR with 200 pM human Leptin [2] | % activation; IMR-32/LEPR without human Leptin [2] | EC50 (M); IMR-32/LEPR with 200 pM human Leptin [2] | EC50 (M); IMR-32/LEPR without human Leptin (STAT3-Luc reporter) [2] | EC50 (M); STAT3-Luc reporter, IMR-32/STAT3-Luc/MfLEPR cells [3] | Binding Ratio (normalized to unstained) [4] | EC50 (read off the curve), pSTAT3 Y705/STAT3 densitometry [5] | Binding Ratio (normalized to unstained) [6]
1 | H4H18445P2 (antibody, human IgG4, V domains shown, human IgG4 Fc) VH: QVQLQESGPGLVKPSQTLSLTCTVSGGSISSGGDYWSWIRQLPGKGLEWIGYIYYSGSAYYNPSLKSRGTISIDTSKNQFSLKLTSVTAADTAVYFCVKLRFLEWFLGGWFGPWGQGTLVTVSS VL: not shown | 2020 fold | 97% | 5% | 4.1e-10 M | 1.19e-08 M | – | – | – | –
2 | H4H18449P2 (antibody, human IgG4, V domains shown, human IgG4 Fc) VH: EVQLVESGGGLVQPGGSLRLSCVASGFTFNKYDMHWVRQTTGKGLEWVSGIDTDGDTYYPGSVKGRFTISRENAENSLYLQMNGLRVGDTAVYYCARWPWSGFYGAFDIWGQGTMVTVSS VL: not shown | 3370 fold | 66% | 13% | 5.23e-11 M | 2.12e-10 M | – | – | – | –
3 | H4H18438P2 (antibody, V domains shown) VH: QVQLVESGGGVVQPGRSLRLSCAASGFSFNTYGMHWVRQAPGKGLEWVTIIWYDGSIKYYADSVKGRFTISRDNSKNTLYLQMNSLRAEDTAVYYCARGGYSGYLYFDYWGQGTLVTVSS VL: not shown | 1490 fold | 76% | 5% | 2.02e-11 M | 1.49e-09 M | – | – | – | –
4 | H4H18417P2 (antibody, V domains shown) VH: QVQLVESGGGVVQPGRSLRLSCAASGFTFSTYGMHWVRQAPGKGLEWVSVISYDESNKYYADSVKGRFTISRDNSKNALYLQMNSLRNEDTAVYYCARDRPFGLVTGWFDPWGQGTLVTVSS VL: not shown | 1840 fold | 87% | 5% | 5.23e-10 M | 1.53e-10 M | – | – | – | –
5 | H4H16650P2 (antibody, V domains shown) VH: QVQLVESGGGVVQPGKSLRLSCVASGFTFSSDAMYWVRQAPGKGLEWVAVIYYDGNYQYYEDSVKGRFTISRDNSQNTLDLQMNSLRVDDTAVYFCARLNWDYWYLDLWGRGTLVTVSS VL: not shown | 2420 fold | 88% | 68% | 5.19e-11 M | 6.19e-11 M | 2.66e-10 M | 707 fold | ~5e-10 M | 42 fold
6 | H4H16679P2 (antibody, V domains shown) VH: QVQLVESGGGVVQPGRSLRLSCTASGFTFSSYAMYWVRQAPGKGLEWVSVIYYDGSYKYYADSVKGRFTISRDNSKNTLYLQMDSLRAEDTAVYYCASYNWNYWYFDFWGRGTLVTVSS VL: not shown | 2060 fold | 88% | 65% | 7.37e-11 M | 8.62e-11 M | 2.49e-10 M | 1080 fold | – | 51 fold
7 | H4H17321P2 (antibody, V domains shown) VH: QVQLVESGGGVVQPGRSLRLSCEASGFSSSDNAMYWVRQAPGKGLEWVSVIYHDGSYKYYEDSVKGRFTIARDNSKNTLYLQMNSLRAEDTAVYYCARYNWNHWYFDVWGRGTLVTVSS VL: not shown | – | 76% | 66% | 2.57e-10 M | 2.07e-10 M | 3.68e-10 M | 1130 fold | – | 46 fold
8 | H4H17319P2 (antibody, V domains shown, also called REGN4461) VH: QVQLVESGGSVVQPGRSLRLSCAASGFTFSTYAMYWVRQTPGKGLEWVAVLYSDGSNKYYIDSVKGRFTISRDTSTNTLYLQMSSLRADDSALYYCARLNWDYWYFDLWGRGTLVTVSS VL: not shown | – | 76% | 68% | 1.91e-10 M | 1.87e-10 M | 3.65e-10 M | 1130 fold | – | 47 fold
9 | H4H18446P2 (antibody, human IgG4, V domains shown, human IgG4 Fc) VH: EVQLVESGGGLVQPGGSLRLSCAASGFTFSNYGMTWVRQAPGKGLEWVSAITGGGGSTYYSNSVKGRFTISRDNSKNTVYLRMNSVRAEDTAVYYCAKYKWNFVDDWGQGTTVTVSS VL: not shown | – | 68% | 6% | 3.42e-11 M | 3.73e-10 M | – | – | – | –
